Source: the supplement of paper PMC5998384

Legend:
HeLa Kyoto [1] = assay: thermal stability score vs G1/S (z-score of summed log2 fold changes over temperatures); higher = more thermally stable than in G1/S
HeLa Kyoto [2] = assay: solubility in G1/S (NP-40 vs SDS abundance) (log2 ratio); higher = more soluble; details: cell cycle stage: G1/S
HeLa Kyoto [3] = assay: melting temperature (median over replicates), in situ; higher = more thermally stable
HeLa Kyoto [4] = assay: solubility change mitosis vs G1/S (difference of NP-40 vs SDS log2 ratios) (log2 ratio difference); higher = more soluble in mitosis
[5] = cell cycle stage: early G1 (4.5 h after nocodazole release)
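Throughout, for melting temperature (median over replicates), in situ: HeLa Kyoto cells synchronized by double thymidine or nocodazole block, proteins quantified by TMT10plex mass spectrometry, three independent biological replicates.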
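Throughout, for solubility change mitosis vs G1/S (difference of NP-40 vs SDS log2 ratios): synchronized HeLa Kyoto cells (double thymidine block for G1/S, nocodazole release for mitosis), protein amounts in NP-40 versus SDS lysates quantified by mass spectrometry, three biological replicates.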
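Throughout, for solubility in G1/S (NP-40 vs SDS abundance): HeLa Kyoto cells arrested at G1/S by double thymidine block, proteins quantified by TMT10plex mass spectrometry in mild NP-40 versus SDS extracts, three biological replicates.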
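Throughout, for thermal stability score vs G1/S (z-score of summed log2 fold changes over temperatures): synchronized HeLa Kyoto cells, proteins quantified by TMT10plex mass spectrometry, three biological replicates, mitosis taken 0.5 h after nocodazole release, G1/S directly after double thymidine block.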

C1GALT1, sequence (chain, as listed by the source): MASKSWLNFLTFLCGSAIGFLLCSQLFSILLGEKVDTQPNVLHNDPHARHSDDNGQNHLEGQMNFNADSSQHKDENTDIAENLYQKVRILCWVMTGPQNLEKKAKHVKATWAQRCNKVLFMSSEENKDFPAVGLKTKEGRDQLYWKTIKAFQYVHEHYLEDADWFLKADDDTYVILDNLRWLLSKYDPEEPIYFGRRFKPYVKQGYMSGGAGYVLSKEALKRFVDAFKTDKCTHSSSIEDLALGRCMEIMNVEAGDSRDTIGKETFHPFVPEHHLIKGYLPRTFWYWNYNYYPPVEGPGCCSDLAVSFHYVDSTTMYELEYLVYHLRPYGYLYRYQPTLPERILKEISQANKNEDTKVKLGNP

Row | Substance | thermal stability score (HeLa Kyoto [1]; [5]) | thermal stability score (HeLa Kyoto [1]; cell cycle stage: mitosis) | solubility in G1/S (log2) (HeLa Kyoto [2]) | melting temperature (HeLa Kyoto [3]; cell cycle stage: G1/S) [°C] | melting temperature (HeLa Kyoto [3]; cell cycle stage: mitosis) [°C] | solubility change mitosis (log2) (HeLa Kyoto [4])
1 | MQAHELFRYFRMPELVDFRQYVRTLPTNTLMGFGAFAALTTFWYATRPKPLKPPCDLSMQSVEVAGSGGARRSALLDSDEPLVYFYDDVTTLYEGFQRGIQVSNNGPCLGSRKPDQPYEWLSYKQVAELSECIGSALIQKGFKTAPDQFIGIFAQNRPEWVIIEQGCFAYSMVIVPLYDTLGNEAITYIVNKAELSLVFVDKPEKAKLLLEGVENKLIPGLKIIVVMDAYGSELVERGQRCGVEVTSMKAMEDLGRANRRKPKPPAPEDLAVICFTSGTTGNPKGAMVTHRNIVSDCSAFVKATENTVNPCPDDTLISFLPLAHMFERVVECVMLCHGAKIGFFQGDIRLLMDDLKVLQPTVFPVVPRLLNRMFDRIFGQANTTLKRWLLDFASKRKEAELRSGIIRNNSLWDRLIFHKVQSSLGGRVRLMVTGAAPVSATVLTFLRAALGCQFYEGYGQTECTAGCCLTMPGDWTAGHVGAPMPCNLIKLVDVEEMNYMAAEGEGEVCVKGPNVFQGYLKDPAKTAEALDKDGWLHTGDIGKWLPNGTLKIIDRKKHIFKLAQGEYIAPEKIENIYMRSEPVAQVFVHGESLQAFLIAIVVPDVETLCSWAQKRGFEGSFEELCRNKDVKKAILEDMVRLGKDSGLKPFEQVKGITLHPELFSIDNGLLTPTMKAKRPELRNYFRSQIDDLYSTIKV [ACSL1] | -0.625 | -1.37 | 0.0525 | 51.6 | 52.1 | -0.213
2 | MTNPSDRVLPANSMAESREGDFGCTVMELRKLMELRSRDALTQINVHYGGVQNLCSRLKTSPVEGLSGNPADLEKRRQVFGHNVIPPKKPKTFLELVWEALQDVTLIILEIAAIISLVLSFYRPAGEENELCGQVATTPEDENEAQAGWIEGAAILFSVIIVVLVTAFNDWSKEKQFRGLQCRIEQEQKFSIIRNGQLIQLPVAEIVVGDIAQVKYGDLLPADGILIQGNDLKIDESSLTGESDHVKKSLDKDPMLLSGTHVMEGSGRMVVTAVGVNSQTGIILTLLGVNEDDEGEKKKKGKKQGVPENRNKAKTQDGVALEIQPLNSQEGIDNEEKDKKAVKVPKKEKSVLQGKLTRLAVQIGKAGLLMSALTVFILILYFVIDNFVINRRPWLPECTPIYIQYFVKFFIIGITVLVVAVPEGLPLAVTISLAYSVKKMMKDNNLVRHLDACETMGNATAICSDKTGTLTMNRMTVVQAYIGGIHYRQIPSPDVFLPKVLDLIVNGISINSAYTSKILPPEKEGGLPRQVGNKTECALLGFVTDLKQDYQAVRNEVPEEKLYKVYTFNSVRKSMSTVIRNPNGGFRMYSKGASEIILRKCNRILDRKGEAVPFKNKDRDDMVRTVIEPMACDGLRTICIAYRDFDDTEPSWDNENEILTELTCIAVVGIEDPVRPEVPDAIAKCKQAGITVRMVTGDNINTARAIATKCGILTPGDDFLCLEGKEFNRLIRNEKGEVEQEKLDKIWPKLRVLARSSPTDKHTLVKGIIDSTVGEHRQVVAVTGDGTNDGPALKKADVGFAMGIAGTDVAKEASDIILTDDNFTSIVKAVMWGRNVYDSISKFLQFQLTVNVVAVIVAFTGACITQDSPLKAVQMLWVNLIMDTFASLALATEPPTESLLKRRPYGRNKPLISRTMMKNILGHAFYQLIVIFILVFAGEKFFDIDSGRKAPLHSPPSQHYTIVFNTFVLMQLFNEINSRKIHGEKNVFSGIYRNIIFCSVVLGTFICQIFIVEFGGKPFSCTSLSLSQWLWCLFIGIGELLWGQFISAIPTRSLKFLKEAGHGTTKEEITKDAEGLDEIDHAEMELRRGQILWFRGLNRIQTQIDVINTFQTGASFKGVLRRQNMGQHLDVKLVPSSSYIKVVKAFHSSLHESIQKPYNQKSIHSFMTHPEFAIEEELPRTPLLDEEEEENPDKASKFGTRVLLLDGEVTPYANTNNNAVDCNQVQLPQSDSSLQSLETSV [ATP2B4] | 1.12 | 0.912 | -0.254 | 54.7 | 54.9 | -0.0607
3 | MEVTGVSAPTVTVFISSSLNTFRSEKRYSRSLTIAEFKCKLELLVGSPASCMELELYGVDDKFYSKLDQEDALLGSYPVDDGCRIHVIDHSGARLGEYEDVSRVEKYTISQEAYDQRQDTVRSFLKRSKLGRYNEEERAQQEAEAAQRLAEEKAQASSIPVGSRCEVRAAGQSPRRGTVMYVGLTDFKPGYWIGVRYDEPLGKNDGSVNGKRYFECQAKYGAFVKPAVVTVGDFPEEDYGLDEI [TBCB] | -0.00262 | 0.00665 | 0.266 | 49.5 | 50.2 | 0.119
4 | MGMWASLDALWEMPAEKRIFGAVLLFSWTVYLWETFLAQRQRRIYKTTTHVPPELGQIMDSETFEKSRLYQLDKSTFSFWSGLYSETEGTLILLFGGIPYLWRLSGRFCGYAGFGPEYEITQSLVFLLLATLFSALTGLPWSLYNTFVIEEKHGFNQQTLGFFMKDAIKKFVVTQCILLPVSSLLLYIIKIGGDYFFIYAWLFTLVVSLVLVTIYADYIAPLFDKFTPLPEGKLKEEIEVMAKSIDFPLTKVYVVEGSKRSSHSNAYFYGFFKNKRIVLFDTLLEEYSVLNKDIQEDSGMEPRNEEEGNSEEIKAKVKNKKQGCKNEEVLAVLGHELGHWKLGHTVKNIIISQMNSFLCFFLFAVLIGRKELFAAFGFYDSQPTLIGLLIIFQFIFSPYNEVLSFCLTVLSRRFEFQADAFAKKLGKAKDLYSALIKLNKDNLGFPVSDWLFSMWHYSHPPLLERLQALKTMKQH [ZMPSTE24] | -0.261 | -0.906 | -0.147 | 55.2 | 54.4 | -0.171
5 | C1GALT1 | -1.2 | 0.982 | 0.222 | 53.7 | 53.6 | -0.0544
6 | MATDSWALAVDEQEAAVKSMTNLQIKEEKVKADTNGIIKTSTTAEKTDEEEKEDRAAQSLLNKLIRSNLVDNTNQVEVLQRDPNSPLYSVKSFEELRLKPQLLQGVYAMGFNRPSKIQENALPMMLAEPPQNLIAQSQSGTGKTAAFVLAMLSRVEPSDRYPQCLCLSPTYELALQTGKVIEQMGKFYPELKLAYAVRGNKLERGQKISEQIVIGTPGTVLDWCSKLKFIDPKKIKVFVLDEADVMIATQGHQDQSIRIQRMLPRNCQMLLFSATFEDSVWKFAQKVVPDPNVIKLKREEETLDTIKQYYVLCSSRDEKFQALCNLYGAITIAQAMIFCHTRKTASWLAAELSKEGHQVALLSGEMMVEQRAAVIERFREGKEKVLVTTNVCARGIDVEQVSVVINFDLPVDKDGNPDNETYLHRIGRTGRFGKRGLAVNMVDSKHSMNILNRIQEHFNKKIERLDTDDLDEIEKIAN [DDX19A] | 1.53 | 0.923 | 0.212 | 49.9 | 49.9 | -0.05
7 | MRRVTLFLNGSPKNGKVVAVYGTLSDLLSVASSKLGIKATSVYNGKGGLIDDIALIRDDDVLFVCEGEPFIDPQTDSKPPEGLLGFHTDWLTLNVGGRYFTTTRSTLVNKEPDSMLAHMFKDKGVWGNKQDHRGAFLIDRSPEYFEPILNYLRHGQLIVNDGINLLGVLEEARFFGIDSLIEHLEVAIKNSQPPEDHSPISRKEFVRFLLATPTKSELRCQGLNFSGADLSRLDLRYINFKMANLSRCNLAHANLCCANLERADLSGSVLDCANLQGVKMLCSNAEGASLKLCNFEDPSGLKANLEGANLKGVDMEGSQMTGINLRVATLKNAKLKNCNLRGATLAGTDLENCDLSGCDLQEANLRGSNVKGAIFEEMLTPLHMSQSVR [KCTD9] | -0.393 | -1.4 | 0.0627 | 52.3 | 51 | -0.2
8 | MLGARAWLGRVLLLPRAGAGLAASRRGSSSRDKDRSATVSSSVPMPAGGKGSHPSSTPQRVPNRLIHEKSPYLLQHAYNPVDWYPWGQEAFDKARKENKPIFLSVGYSTCHWCHMMEEESFQNEEIGRLLSEDFVSVKVDREERPDVDKVYMTFVQATSSGGGWPMNVWLTPNLQPFVGGTYFPPEDGLTRVGFRTVLLRIREQWKQNKNTLLENSQRVTTALLARSEISVGDRQLPPSAATVNNRCFQQLDEGYDEEYGGFAEAPKFPTPVILSFLFSYWLSHRLTQDGSRAQQMALHTLKMMANGGIRDHVGQGFHRYSTDRQWHVPHFEKMLYDQAQLAVAYSQAFQLSGDEFYSDVAKGILQYVARSLSHRSGGFYSAEDADSPPERGQRPKEGAYYVWTVKEVQQLLPEPVLGATEPLTSGQLLMKHYGLTEAGNISPSQDPKGELQGQNVLTVRYSLELTAARFGLDVEAVRTLLNSGLEKLFQARKHRPKPHLDSKMLAAWNGLMVSGYAVTGAVLGQDRLINYATNGAKFLKRHMFDVASGRLMRTCYTGPGGTVEHSNPPCWGFLEDYAFVVRGLLDLYEASQESAWLEWALRLQDTQDKLFWDSQGGGYFCSEAELGAGLPLRLKDDQDGAEPSANSVSAHNLLRLHGFTGHKDWMDKCVCLLTAFSERMRRVPVALPEMVRALSAQQQTLKQIVICGDRQAKDTKALVQCVHSVYIPNKVLILADGDPSSFLSRQLPFLSTLRRLEDQATAYVCENQACSVPITDPCELRKLLHP [SPATA20] | 0.594 | 0.85 | 0.267 | 51.6 | 52.6 | -0.304
9 | MSMLKPSGLKAPTKILKPGSTALKTPTAVVAPVEKTISSEKASSTPSSETQEEFVDDFRVGERVWVNGNKPGFIQFLGETQFAPGQWAGIVLDEPIGKNDGSVAGVRYFQCEPLKGIFTRPSKLTRKVQAEDEANGLQTTPASRATSPLCTSTASMVSSSPSTPSNIPQKPSQPAAKEPSATPPISNLTKTASESISNLSEAGSIKKGERELKIGDRVLVGGTKAGVVRFLGETDFAKGEWCGVELDEPLGKNDGAVAGTRYFQCQPKYGLFAPVHKVTKIGFPSTTPAKAKANAVRRVMATTSASLKRSPSASSLSSMSSVASSVSSRPSRTGLLTETSSRYARKISGTTALQEALKEKQQHIEQLLAERDLERAEVAKATSHVGEIEQELALARDGHDQHVLELEAKMDQLRTMVEAADREKVELLNQLEEEKRKVEDLQFRVEEESITKGDLEQKSQISEDPENTQTKLEHARIKELEQSLLFEKTKADKLQRELEDTRVATVSEKSRIMELEKDLALRVQEVAELRRRLESNKPAGDVDMSLSLLQEISSLQEKLEVTRTDHQREITSLKEHFGAREETHQKEIKALYTATEKLSKENESLKSKLEHANKENSDVIALWKSKLETAIASHQQAMEELKVSFSKGLGTETAEFAELKTQIEKMRLDYQHEIENLQNQQDSERAAHAKEMEALRAKLMKVIKEKENSLEAIRSKLDKAEDQHLVEMEDTLNKLQEAEIKVKELEVLQAKCNEQTKVIDNFTSQLKATEEKLLDLDALRKASSEGKSEMKKLRQQLEAAEKQIKHLEIEKNAESSKASSITRELQGRELKLTNLQENLSEVSQVKETLEKELQILKEKFAEASEEAVSVQRSMQETVNKLHQKEEQFNMLSSDLEKLRENLADMEAKFREKDEREEQLIKAKEKLENDIAEIMKMSGDNSSQLTKMNDELRLKERDVEELQLKLTKANENASFLQKSIEDMTVKAEQSQQEAAKKHEEEKKELERKLSDLEKKMETSHNQCQELKARYERATSETKTKHEEILQNLQKTLLDTEDKLKGAREENSGLLQELEELRKQADKAKAAQTAEDAMQIMEQMTKEKTETLASLEDTKQTNAKLQNELDTLKENNLKNVEELNKSKELLTVENQKMEEFRKEIETLKQAAAQKSQQLSALQEENVKLAEELGRSRDEVTSHQKLEEERSVLNNQLLEMKKRESKFIKDADEEKASLQKSISITSALLTEKDAELEKLRNEVTVLRGENASAKSLHSVVQTLESDKVKLELKVKNLELQLKENKRQLSSSSGNTDTQADEDERAQESQIDFLNSVIVDLQRKNQDLKMKVEMMSEAALNGNGDDLNNYDSDDQEKQSKKKPRLFCDICDCFDLHDTEDCPTQAQMSEDPPHSTHHGSRGEERPYCEICEMFGHWATNCNDDETF [CLIP1] | -1.53 | -1.75 | 0.37 | 54.7 | 54.2 | -0.0152
